From paper doi:10.1101/2021.09.20.461090

Biological target: extended E34 TSP (E34 phage tailspike protein with the N-terminal 43 amino acid fusion peptide) (E34 phage)
Assay: SDS-PAGE of unheated against unfolded samples

Question: How did the stoichiometry N turn out when “extended E34 TSP (E34 phage tailspike protein with the N-terminal 43 amino acid fusion peptide) (natural protein)” was run?
Answer: 3
